Data: publication PMC8325310
“And” between values parts separate entries of the source, which are not always exact repeats. Identical values can stand only once.

Experiments:
[1] = target: NT*-Bri2 BRICHOS (human); test: SEC; IMAC-purified NT*-Bri2 BRICHOS concentrated to 3.4 mg/mL, Superdex 200 26/600, 20 mM NaPi pH 8.0 with 0.2 mM EDTA; four peaks resolved (monomer, dimer, tetramer, higher oligomers)
[2] = target: recombinant human (rh) Bri2 BRICHOS (human); test: SDS-PAGE under reducing and non-reducing conditions; SEC-isolated rh Bri2 BRICHOS species analysed by SDS-PAGE, reducing and non-reducing
[3] = target: recombinant human (rh) Bri2 BRICHOS (human); test: SEC; Bri2 BRICHOS species after thrombin cleavage and reverse IMAC, Superdex 200 26/600 (oligomer, tetramer, dimer) or Superdex 75 26/600 (monomer), 20 mM NaPi pH 8.0 with 0.2 mM EDTA

Sequence of NT*-Bri2 BRICHOS (Q9Y287 132-236): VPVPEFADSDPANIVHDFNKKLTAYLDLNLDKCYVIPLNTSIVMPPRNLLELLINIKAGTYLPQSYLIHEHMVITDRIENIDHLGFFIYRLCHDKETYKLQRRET

How did the stoichiometry N [1] turn out when NT*-Bri2 BRICHOS (domain or fragment) was run?
Its stoichiometry N is 2 and 4.

With “recombinant human (rh) Bri2 BRICHOS (domain or fragment)” as the substance, how does the stoichiometry N [2] read?
The stoichiometry N was 6.

What about the stoichiometry N [3] of the same substance?
The stoichiometry N was 2 and 4.
